According to PMC9891371:
“And” between values parts separate entries of the source, which are not always exact repeats. Identical values can stand only once. Blank lines part the entries; values can stand above or below the substance they belong to.

Columns and labels:
[1] = target: ZE-fused ferritin, C-terminal fusion (HF-ZE) cage (human); experiment: TEM + native gel or EMSA
[2] = target: ZE-mi3 cage (His tag and ZE fused to the N-terminus of the designed protein cage mi3); experiment: native gel or EMSA
[3] = target: ZE-fused ferritin, N-terminal fusion (ZE-HF) cage (human); experiment: TEM
[4] = target: ZE-mi3 cage (His tag and ZE fused to the N-terminus of the designed protein cage mi3); experiment: TEM
[5] = target: ZE-fused ferritin, N-terminal fusion (ZE-HF) cage (human); experiment: native gel or EMSA
[6] = target: C-terminal ZR-fused ferritin (HF-ZR) cage, 15 residue linker (human); experiment: negative-stain TEM

stoichiometry N (HF-ZR cages per HF-ZE cage) [1]: 1 and 3 | stoichiometry N (HF-ZR cages per ZE-mi3 cage) [2]: 12 | stoichiometry N (HF-ZR cages per ZE-HF cage) [3]: 4 and 6 | stoichiometry N (HF-ZR cages per mi3 cage) [4]: 12
Substance: C-terminal ZR-fused ferritin (HF-ZR) cage, 15 residue linker (designed binder)

stoichiometry N (GFPs per ferritin cage) [5]: 20 to 24
Substance: GFP-ZR (ZR fusion to the GFP C-terminus) (designed binder)

stoichiometry N (GFPs observed per cage) [6]: 1 and 3
Substance: ZE-GFP (ZE-fused GFP) (designed binder)
